Earlier results in patent US20260183395A1, “COMBINED THERAPIES USING IMMUNOMODULATING DRUGS” (ONK THERAPEUTICS LIMITED, priority 2022, published 2026).

Key:
[1] = target: DR4 (Homo sapiens, UniProt O00220); settings: surface plasmon resonance; WO 2009/077857
[2] = target: T1, decoy receptor DcR1 (Homo sapiens, UniProt O14798); settings: surface plasmon resonance; WO 2009/077857
T1 sequence (O14798 26-236): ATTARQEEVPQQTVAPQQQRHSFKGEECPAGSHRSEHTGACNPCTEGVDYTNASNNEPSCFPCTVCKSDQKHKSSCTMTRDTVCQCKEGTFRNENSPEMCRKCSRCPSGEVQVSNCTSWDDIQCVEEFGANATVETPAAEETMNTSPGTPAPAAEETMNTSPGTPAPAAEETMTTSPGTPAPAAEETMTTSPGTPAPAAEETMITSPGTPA

Substance: Wildtype TRAIL: Wildtype TRAIL ligand, baseline for the affinity of TRAIL variants/mutants
- Kd [1]: > 0.002 µM
- Kd [2]: > 0.02 µM
